Reference: the supplement of paper PMC11316812
± gives the standard deviation of the averaged measurements.

Legend:
[1] = test system: hTERT-HMEC; assay: percentage of EdU-negative (G0-arrested) nuclei per well, 72 h; higher = more G0 arrest; settings: reference: sequence is the full UniProt precursor, the tested protein was the secreted form or ectodomain
[2] = test system: MCF7; assay: as above; settings: reference: sequence is the full UniProt precursor, the tested protein was the secreted form or ectodomain
[3] = protein concentration 0.0175 µM
[4] = protein concentration 0.0126825 µM
[5] = protein concentration 0.126825 µM
[6] = protein concentration 0.01625 µM
[7] = protein concentration 0.1625 µM
[8] = protein concentration 0.0225 µM
[9] = protein concentration 0.0155 µM
[10] = protein concentration 0.0173575 µM
[11] = protein concentration 0.173575 µM
[12] = protein concentration 0.0224225 µM
[13] = protein concentration 0.0243425 µM
[14] = protein concentration 0.028825 µM
[15] = protein concentration 0.224225 µM
[16] = protein concentration 0.243425 µM
[17] = protein concentration 0.28825 µM
[18] = protein concentration 0.0085 µM
[19] = protein concentration 0.0301275 µM
[20] = protein concentration 0.301275 µM
[21] = protein concentration 0.03125 µM
[22] = protein concentration 0.3125 µM
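Further: secreted proteins added to cultured cells, EdU pulse at the end, nuclei found by Hoechst imaging, EdU status from nuclear versus surrounding ring intensity ratio, PBS as neutral control.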

Sequence: MQSVQSTSFCLRKQCLCLTFLLLHLLGQVAATQRCPPQCPGRCPATPPTCAPGVRAVLDGCSCCLVCARQRGESCSDLEPCDESSGLYCDRSADPSNQTGICTAVEGDNCVFDGVIYRSGEKFQPSCKFQCTCRDGQIGCVPRCQLDVLLPEPNCPAPRKVEVPGECCEKWICGPDEEDSLGGLTLAAYRPEATLGVEVSDSSVNCIEQTTEWTACSKSCGMGFSTRVTNRNRQCEMLKQTRLCMVRPCEQEPEQPTDKKGKKCLRTKKSLKAIHLQFKNCTSLHTYKPRFCGVCSDGRCCTPHNTKTIQAEFQCSPGQIVKKPVMVIGTCTCHTNCPKNNEAFLQELELKTTRGKM
- percentage of EdU-negative [1, 3]: 4.53 ± 0.15%
- percentage of EdU-negative ([1]; protein concentration 0.175 µM): 15.1 ± 2.2%
- percentage of EdU-negative [2, 3]: 26.6 ± 2.9%
- percentage of EdU-negative ([2]; protein concentration 0.175 µM): 26.7 ± 4.2%

Sequence: MQVSKRMLAGGVRSMPSPLLACWQPILLLVLGSVLSGSATGCPPRCECSAQDRAVLCHRKRFVAVPEGIPTETRLLDLGKNRIKTLNQDEFASFPHLEELELNENIVSAVEPGAFNNLFNLRTLGLRSNRLKLIPLGVFTGLSNLTKLDISENKIVILLDYMFQDLYNLKSLEVGDNDLVYISHRAFSGLNSLEQLTLEKCNLTSIPTEALSHLHGLIVLRLRHLNINAIRDYSFKRLYRLKVLEISHWPYLDTMTPNCLYGLNLTSLSITHCNLTAVPYLAVRHLVYLRFLNLSYNPISTIEGSMLHELLRLQEIQLVGGQLAVVEPYAFRGLNYLRVLNVSGNQLTTLEESVFHSVGNLETLILDSNPLACDCRLLWVFRRRWRLNFNRQQPTCATPEFVQGKEFKDFPDVLLPNYFTCRRARIRDRKAQQVFVDEGHTVQFVCRADGDPPPAILWLSPRKHLVSAKSNGRLTVFPDGTLEVRYAQVQDNGTYLCIAANAGGNDSMPAHLHVRSYSPDWPHQPNKTFAFISNQPGEGEANSTRATVPFPFDIKTLIIATTMGFISFLGVVLFCLVLLFLWSRGKGNTKHNIEIEYVPRKSDAGISSADAPRKFNMKMI [Q96FE5]
- percentage of EdU-negative [1, 4]: 4.72 ± 0.26%
- percentage of EdU-negative [1, 5]: 4.37 ± 0.16%
- percentage of EdU-negative [2, 4]: 23.8 ± 3%
- percentage of EdU-negative [2, 5]: 28.9 ± 0.74%

Sequence: MQVSTAALAVLLCTMALCNQFSASLAADTPTACCFSYTSRQIPQNFIADYFETSSQCSKPGVIFLTKRSRQVCADPSEEWVQKYVSDLELSA
- percentage of EdU-negative [1, 6]: 4.43 ± 0.47%
- percentage of EdU-negative [1, 7]: 5.62 ± 0.9%
- percentage of EdU-negative [2, 6]: 25.6 ± 0.31%
- percentage of EdU-negative [2, 7]: 25.3 ± 0.67%

Sequence: MQWLRVRESPGEATGHRVTMGTAALGPVWAALLLFLLMCEIPMVELTFDRAVASGCQRCCDSEDPLDPAHVSSASSSGRPHALPEIRPYINITILKGDKGDPGPMGLPGYMGREGPQGEPGPQGSKGDKGEMGSPGAPCQKRFFAFSVGRKTALHSGEDFQTLLFERVFVNLDGCFDMATGQFAAPLRGIYFFSLNVHSWNYKETYVHIMHNQKEAVILYAQPSERSIMQSQSVMLDLAYGDRVWVRLFKRQRENAIYSNDFDTYITFSGHLIKAEDD [Q9BXI9]
- percentage of EdU-negative [1, 8]: 4.57 ± 0.33%
- percentage of EdU-negative ([1]; protein concentration 0.225 µM): 4.82 ± 1.2%
- percentage of EdU-negative [2, 8]: 26.9 ± 1.5%
- percentage of EdU-negative ([2]; protein concentration 0.225 µM): 29.5 ± 1.2%

Sequence: MQWTSLLLLAGLFSLSQAQYEDDPHWWFHYLRSQQSTYYDPYDPYPYETYEPYPYGVDEGPAYTYGSPSPPDPRDCPQECDCPPNFPTAMYCDNRNLKYLPFVPSRMKYVYFQNNQITSIQEGVFDNATGLLWIALHGNQITSDKVGRKVFSKLRHLERLYLDHNNLTRMPGPLPRSLRELHLDHNQISRVPNNALEGLENLTALYLQHNEIQEVGSSMRGLRSLILLDLSYNHLRKVPDGLPSALEQLYMEHNNVYTVPDSYFRGAPKLLYVRLSHNSLTNNGLASNTFNSSSLLELDLSYNQLQKIPPVNTNLENLYLQGNRINEFSISSFCTVVDVVNFSKLQVLRLDGNEIKRSAMPADAPLCLRLASLIEI
- percentage of EdU-negative [1, 9]: 4.701 ± 0.032%
- percentage of EdU-negative ([1]; protein concentration 0.155 µM): 5.63 ± 0.63%
- percentage of EdU-negative [2, 9]: 25.8 ± 0.27%
- percentage of EdU-negative ([2]; protein concentration 0.155 µM): 30.9 ± 1.2%

Sequence: MRAAGTLLAFCCLVLSTTGGPSPDTCSQDLNSRVKPGFPKTIKTNDPGVLQAARYSVEKFNNCTNDMFLFKESRITRALVQIVKGLKYMLEVEIGRTTCKKNQHLRLDDCDFQTNHTLKQTLSCYSEVWVVPWLQHFEVPVLRCH
- percentage of EdU-negative [1, 8]: 4.61 ± 0.72%
- percentage of EdU-negative ([1]; protein concentration 0.225 µM): 4.863 ± 0.024%
- percentage of EdU-negative [2, 8]: 27.2 ± 0.74%
- percentage of EdU-negative ([2]; protein concentration 0.225 µM): 27.2 ± 1.1%

Sequence: MRAAPLLLARAASLSLGFLFLLFFWLDRSVLAKELKFVTLVFRHGDRSPIDTFPTDPIKESSWPQGFGQLTQLGMEQHYELGEYIRKRYRKFLNESYKHEQVYIRSTDVDRTLMSAMTNLAALFPPEGVSIWNPILLWQPIPVHTVPLSEDQLLYLPFRNCPRFQELESETLKSEEFQKRLHPYKDFIATLGKLSGLHGQDLFGIWSKVYDPLYCESVHNFTLPSWATEDTMTKLRELSELSLLSLYGIHKQKEKSRLQGGVLVNEILNHMKRATQIPSYKKLIMYSAHDTTVSGLQMALDVYNGLLPPYASCHLTELYFEKGEYFVEMYYRNETQHEPYPLMLPGCSPSCPLERFAELVGPVIPQDWSTECMTTNSHQGTEDSTD
- percentage of EdU-negative [1, 10]: 5.15 ± 0.62%
- percentage of EdU-negative [1, 11]: 5.55 ± 0.26%
- percentage of EdU-negative [2, 10]: 26.5 ± 0.46%
- percentage of EdU-negative [2, 11]: 27.8 ± 1.6%

Sequence: MRACISLVLAVLCGLAWAGKIESCASRCNEKFNRDAACQCDRRCLWHGNCCEDYEHLCTEDHKESEPLPQLEEETEEALASNLYSAPTSCQGRCYEAFDKHHQCHCNARCQEFGNCCKDFESLCSDHEVSHSSDAITKEEIQSISEKIYRADTNKAQKEDIVLNSQNCISPSETRNQVDRCPKPLFTYVNEKLFSKPTYAAFINLLNNYQRATGHGEHFSAQELAEQDAFLREIMKTAVMKELYSFLHHQNRYGSEQEFVDDLKNMWFGLYSRGNEEGDSSGFEHVFSGEVKKGKVTGFHNWIRFYLEEKEGLVDYYSHIYDGPWDSYPDVLAMQFNWDGYYKEVGSAFIGSSPEFEFALYSLCFIARPGKVCQLSLGGYPLAVRTYTWDKSTYGNGKKYIATAYIVSST
- percentage of EdU-negative [1, 12]: 5.37 ± 0.81%
- percentage of EdU-negative [1, 13]: 4.65 ± 0.23%
- percentage of EdU-negative [1, 14]: 5.03 ± 0.15%
- percentage of EdU-negative [1, 15]: 5.94 ± 0.48%
- percentage of EdU-negative [1, 16]: 8.43 ± 1.2%
- percentage of EdU-negative [1, 17]: 6.74 ± 0.95%
- percentage of EdU-negative [2, 12]: 25.11 ± 0.21%
- percentage of EdU-negative [2, 13]: 25.2 ± 1.4%
- percentage of EdU-negative [2, 14]: 24.16 ± 0.045%
- percentage of EdU-negative [2, 15]: 28.6 ± 2.5%
- percentage of EdU-negative [2, 16]: 27.3 ± 0.39%
- percentage of EdU-negative [2, 17]: 27.382 ± 0.0011%

Sequence: MRALEGPGLSLLCLVLALPALLPVPAVRGVAETPTYPWRDAETGERLVCAQCPPGTFVQRPCRRDSPTTCGPCPPRHYTQFWNYLERCRYCNVLCGEREEEARACHATHNRACRCRTGFFAHAGFCLEHASCPPGAGVIAPGTPSQNTQCQPCPPGTFSASSSSSEQCQPHRNCTALGLALNVPGSSSHDTLCTSCTGFPLSTRVPGAEECERAVIDFVAFQDISIKRLQRLLQALEAPEGWGPTPRAGRAALQLKLRRRLTELLGAQDGALLVRLLQALRVARMPGLERSVRERFLPVH
- percentage of EdU-negative [1, 18]: 4.68 ± 0.12%
- percentage of EdU-negative ([1]; protein concentration 0.085 µM): 8.46 ± 1.8%
- percentage of EdU-negative [2, 18]: 22.9 ± 1.3%
- percentage of EdU-negative ([2]; protein concentration 0.085 µM): 27.9 ± 2.1%

Sequence: MRALLLLGFLLVSLESTLSIPPWEAPKEHKYKAEEHTVVLTVTGEPCHFPFQYHRQLYHKCTHKGRPGPQPWCATTPNFDQDQRWGYCLEPKKVKDHCSKHSPCQKGGTCVNMPSGPHCLCPQHLTGNHCQKEKCFEPQLLRFFHKNEIWYRTEQAAVARCQCKGPDAHCQRLASQACRTNPCLHGGRCLEVEGHRLCHCPVGYTGAFCDVDTKASCYDGRGLSYRGLARTTLSGAPCQPWASEATYRNVTAEQARNWGLGGHAFCRNPDNDIRPWCFVLNRDRLSWEYCDLAQCQTPTQAAPPTPVSPRLHVPLMPAQPAPPKPQPTTRTPPQSQTPGALPAKREQPPSLTRNGPLSCGQRLRKSLSSMTRVVGGLVALRGAHPYIAALYWGHSFCAGSLIAPCWVLTAAHCLQDRPAPEDLTVVLGQERRNHSCEPCQTLAVRSYRLHEAFSPVSYQHDLALLRLQEDADGSCALLSPYVQPVCLPSGAARPSETTLCQVAGWGHQFEGAEEYASFLQEAQVPFLSLERCSAPDVHGSSILPGMLCAGFLEGGTDACQGDSGGPLVCEDQAAERRLTLQGIISWGSGCGDRNKPGVYTDVAYYLAWIREHTVS
- percentage of EdU-negative ([1]; protein concentration 0.009 µM): 5.23 ± 0.56%
- percentage of EdU-negative ([1]; protein concentration 0.09 µM): 49.1 ± 0.6%
- percentage of EdU-negative ([2]; protein concentration 0.009 µM): 27.06 ± 0.031%
- percentage of EdU-negative ([2]; protein concentration 0.09 µM): 27.973 ± 0.024%

Sequence: MRALRDRAGLLLCVLLLAALLEAALGLPVKKPRLRGPRPGSLTRLAEVSASPDPRPLKEEEEAPLLPRTHLQAEPHQHGCWTVTEPAAMTPGNATPPRTPEVTPLRLELQKLPGLANTTLSTPNPDTQASASPDPRPLREEEEARLLPRTHLQAELHQHGCWTVTEPAALTPGNATPPRTQEVTPLLLELQKLPELVHATLSTPNPDNQVTIKVVEDPQAEVSIDLLAEPSNPPPQDTLSWLPALWSFLWGDYKGEEKDRAPGEKGEEKEEDEDYPSEDIEGEDQEDKEEDEEEQALWFNGTTDNWDQGWLAPGDWVFKDSVSYDYEPQKEWSPWSPCSGNCSTGKQQRTRPCGYGCTATETRTCDLPSCPGTEDKDTLGLPSEEWKLLARNATDMHDQDVDSCEKWLNCKSDFLIKYLSQMLRDLPSCPCAYPLEAMDSPVSLQDEHQGRSFRWRDASGPRERLDIYQPTARFCLRSMLSGESSTLAAQHCCYDEDSRLLTRGKGAGMPNLISTDFSPKLHFKFDTTPWILCKGDWSRLHAVLPPNNGRACTDNPLEEEYLAQLQEAKEY [Q6H9L7]
- percentage of EdU-negative [1, 19]: 5.26 ± 0.1%
- percentage of EdU-negative [1, 20]: 5.07 ± 0.18%
- percentage of EdU-negative [2, 19]: 24.4 ± 0.93%
- percentage of EdU-negative [2, 20]: 28.4 ± 1.3%

Sequence: MRALVLLLSLFLLGGQAQHVSDWTYSEGALDEAHWPQHYPACGGQRQSPINLQRTKVRYNPSLKGLNMTGYETQAGEFPMVNNGHTVQISLPSTMRMTVADGTVYIAQQMHFHWGGASSEISGSEHTVDGIRHVIEIHIVHYNSKYKSYDIAQDAPDGLAVLAAFVEVKNYPENTYYSNFISHLANIKYPGQRTTLTGLDVQDMLPRNLQHYYTYHGSLTTPPCTENVHWFVLADFVKLSRTQVWKLENSLLDHRNKTIHNDYRRTQPLNHRVVESNFPNQEYTLGSEFQFYLHKIEEILDYLRRALN
- percentage of EdU-negative [1, 21]: 5.04 ± 0.54%
- percentage of EdU-negative [1, 22]: 4.6 ± 0.89%
- percentage of EdU-negative [2, 21]: 24.6 ± 1.3%
- percentage of EdU-negative [2, 22]: 23.7 ± 0.28%
